Measurements taken from the supplement of paper PMC9170038.

Tested on: MS2 coat protein
Test: apparent KD of MS2 coat protein; designed switch direction (-1 OFF switch, 1 ON switch): -1; higher = weaker reporter binding
Procedure, shortened: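 The buffer was Tris-HCl pH 7.5 with KCl, MgCl2, BSA, DTT, tRNA and Tween-20. In it, SNAP-549-labelled MS2 coat protein was titrated in doubling steps from 0.7 or 1.5 nM to 3 µM over chip-bound RNA switches transcribed by stalled E. coli RNA polymerase on Illumina chips. Apparent KD is the per-design median over clusters of curve fits to normalised fluorescence.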

[1] = Eterna round: R95, input ligand: microRNA oligo, concentration not stated
[2] = input ligand: microRNA oligo, concentration not stated
[3] = Eterna round: R95, input ligand: FMN 200 uM
[4] = Eterna round: R95, input ligand: none

Sequence	apparent KD of MS2 coat protein [1]	apparent KD of MS2 coat protein (input ligand: FMN 200 uM)	apparent KD of MS2 coat protein [2]	apparent KD of MS2 coat protein (input ligand: none)	apparent KD of MS2 coat protein [3]	apparent KD of MS2 coat protein [4]
GGGUGUGAAGGAUAUACAUGAGGAUCACCCAUGUGAGAGGAGAAUGUUGAGGAGGUUGGUAGAAGGUCAGGAGG [JR_Exclusion3_Sub010] (puzzle: Exclusion 3)	79.1 nM					
GGGUGUGAAGGAUAUACAUGAGGAUCACCCAUGUGAGAGGAGGAGGUUGAGGAGGUUGGUAGAAGGUCAGGAGG [JR_Exclusion3_Sub011] (Eterna round: R96, puzzle: Exclusion 3)		219 nM	149 nM	220 nM		
GGGUGUGAAGGAUAUACAUGAGGAUCACCCAUGUGAGAGGAGGAGGUUGAGGAGGUUGGUAGAAGGUCAGGAGG [JR_Exclusion3_Sub011] (puzzle: Exclusion 3)	120 nM					
GGUACUAACACGAAAGUGUUAGUACAAUAAGCUAGUGGAACAUGAGGAUCACCCAUGUCCUCAUUAGCUCGUCUUAU [Mat - Sensor v3 - Turn-off var 2 - D36] (puzzle: Sensor v3, turn-off variant 2)	43.8 nM				14.5 nM	15 nM
GGUACUAACACGAAAGUGUUAGUACUAUAAGCUUGUGUUACAUGAGGAUCACCCAUGUCCUCAUAGGCUCGUCUUAU [JL-sv3-2.18 mat747 mod] (puzzle: Sensor v3, turn-off variant 2)	29.9 nM				292 nM	252 nM
GGUACUAACACGAGAGUGUUAGUACUAUAAGCUUGUGUUACAUGAGGAUCACCCAUGUCCUCAUAAGCUCGUCUUGA [Mat - Sensor v3 - Turn-off var 2 - D90] (puzzle: Sensor v3, turn-off variant 2)	974 nM				33 nM	36.2 nM
GGUACUAACACGAUAGUGUUAGUACUAUAAGCUUGUGUUACAUGAGGAUCACCCAUGUCCUCAUAAGCUCGUCUUGU [Mat - Sensor v3 - Turn-off var 2 - D89] (puzzle: Sensor v3, turn-off variant 2)	52.9 nM				49.8 nM	44.8 nM
GGUCAGACGGUAGGAUAUCCAUAUCGAGUGACUCUUUCAUAACAUGAGGAUCACCCAUGUCGGUGGGAGAAGGGCCGUACGGCG [salish99_ExNG02_R04_005] (Eterna round: R96, puzzle: Exclusion NG 2)		61.5 nM	29.6 nM	42.7 nM		
GGUCAGAUGGUAGGAUAUCCAUAUCGAGUGACCCUUUCAUAACAUGAGGAUCACCCAUGUCGGUGGGAGAAGGGCCGUACGGUG [salish99_ExNG02_R04_023] (Eterna round: R96, puzzle: Exclusion NG 2)		39.5 nM	41.2 nM	48.8 nM		
GGUCAGAUGGUAGGAUAUCCAUAUCGAGUGACCCUUUCAUAACAUGAGGAUCACCCAUGUCGGUGGGAGAAGGGCUGUACGGCG [salish99_ExNG02_R04_021] (Eterna round: R96, puzzle: Exclusion NG 2)		34.8 nM	19.1 nM	43.3 nM		
GGUCAUCAAGUCAGGAUAUCGUCAAAUCAAUCAGGCGAGAAGGGACAUGAGGAUCACCCAUGUCGACUCAUCAG [Ex4 #5] (Eterna round: R97, puzzle: Brourd's mod of Exclusion 4)		123 nM		34.3 nM		
GGUCCACAUGAGGAUCACCCAUGUUAGGAUAUCUCCCGCCUCCUCACUAGAGGCGGACAGAGAAGGAACAUCAA [Raerge] (puzzle: Exclusion 1)	23.2 nM					
GGUCCUCCGGAGGAUAUGGAACUGGAGGUAGUACCAGAAGGCCGAACAUGAGGAUCACCCAUGUGCCCGUAAAA [Aarlean] (puzzle: Exclusion 6)	17 nM				76.8 nM	18.5 nM
GGUCGGCGAGGAUAUACAUGAGGAUCACCCAUGUGAUAGAUUGCUUCGUGAGAAGUAUGUAGAAGGCGCUGACG [jl-ex3-4.04 jl mod] (Eterna round: R97, puzzle: Exclusion 3)		320 nM		38.7 nM		
GGUCGGGCAAAGGAUGCCCACAUGAGGAUCACCCAUGUACAAGACUUUAAGGUGCGUAAGCGCAUACGGCUCGUUAA [Eternabot (L1) Solution 26] (Eterna round: R97, puzzle: Sensor, turn-off variant 1)		15.9 nM		16.5 nM		
GGUCGUCAAGUCAGGAUAUCGUUUGGUCGGUGUGACGAGAAGGGACAUGAGGAUCACCCAUGUCGUCUCAUCAG [Ex4 #29] (Eterna round: R97, puzzle: Brourd's mod of Exclusion 4)		31 nM		30.8 nM		
GGUCUACAUGAGGAUCACCCAUGUAAGGAUAUCGUCACUGGAGCCUCGGCUCCAGUGACGAGAAGGUACGUAAU [E1/12-A2] (Eterna round: R97, puzzle: Exclusion 1)		31.5 nM		34.5 nM		
GGUCUUCAAGUCAGGAUAUCGUCUAAUCGAUCUGGCGAGAAGGGACAUGAGGAUCACCCAUGUCGUCUCAUCAG [Ex4 #16] (Eterna round: R97, puzzle: Brourd's mod of Exclusion 4)		22.7 nM		17.7 nM		

Sequence	apparent KD of MS2 coat protein [1]	apparent KD of MS2 coat protein (input ligand: FMN 200 uM)	apparent KD of MS2 coat protein [2]	apparent KD of MS2 coat protein (input ligand: none)	apparent KD of MS2 coat protein [3]	apparent KD of MS2 coat protein [4]
GGUGAAGCAGGAUAUGUAUCGAUAUACAUGAGGAUCACCCAUGUCAUGUAGAAACCGCAUAUAGAAGGGCUUCACC [Exclusion 5 (FMN-MS2 slide v.6)] (Eterna round: R97, puzzle: Exclusion 5)		163 nM		47.4 nM		
GGUGAGAGCAAGGAUAUGCAGAAGUGAGAAAGUGCAGAAGGUGCUACAUGAGGAUCACCCAUGUUGGAUGUGUU [JR_E6_Sub015] (puzzle: Exclusion 6)	34.2 nM					
GGUGCGUAUGUGAGGAUAUGCUGGUCCUUGGAUCGGCAGAAGGUACAUGAGGAUCACCCAUGUGGUGUCGUUCU [salish99_Bmod_ex4_105] (puzzle: Brourd's mod of Exclusion 4)	232 nM					
GGUGCGUCUGUGAGGAUAUGCUGGUCCUUGGAUCAGCAGAAGGCACAUGAGGAUCACCCAUGUGGUGUCGUACC [salish99_Bmod_Ex4_028] (puzzle: Brourd's mod of Exclusion 4)	143 nM					
GGUGCUGGCGCGUCGGUGUUGGUGCAAUAAGCUUGUGAAACAUGAGGAUCACCCAUGUCCUCAUAAGCUCGUCUUAU [salish99_TOv2_r2_086] (Eterna round: R96, puzzle: Sensor v3, turn-off variant 2)		13.7 nM	334 nM	17.7 nM		
GGUGCUGGCGCGUCGGUGUUGGUGCAAUAAGCUUGUGAAACAUGAGGAUCACCCAUGUCCUCAUAAGCUCGUCUUAU [salish99_TOv2_r2_086] (puzzle: Sensor v3, turn-off variant 2)	529 nM				17.7 nM	15.9 nM
GGUGGACAUGAGGAUCACCCAUGUGAGGAUAUCGGCCGGCUAGUGGCGGCUGGCUUCACGAGAAGGCGCAUAGU [Exclusion 1 V78] (puzzle: Exclusion 1)	65.4 nM					
GGUGGACAUGAGGAUCACCCAUGUGAGGAUAUCGGCCGGUUCGUGGUGGCUGGCCUCUCGAGAAGGCGCAUAGU [Exclusion 1 V73] (puzzle: Exclusion 1)	44.1 nM					
GGUGGACAUGAGGAUCACCCAUGUGAGGAUAUCGGCCGGUUCGUGGUGGCUGGCGUCUCGAGAAGGCGCAUAGU [Exclusion 1 V70] (puzzle: Exclusion 1)	28.6 nM					
GGUGGACAUGAGGAUCACCCAUGUGAGGAUAUCGGCUAUCUACUCGCUGUCGGUUGCUCGAGAAGGCACAUUGU [Exclusion 1 V93] (puzzle: Exclusion 1)	151 nM					
GGUGGACAUGAGGAUCACCCAUGUGAGGAUAUCGGCUGGCUAGUGGCUGACGGCUGCUCGAGAAGGCGCAUUGU [Exclusion 1 V86] (puzzle: Exclusion 1)	54.7 nM					
GGUGUGAGGCAGGAUAUGCUAUAUGUUAGUAAUGCAGAAGGGUCUACAUGAGGAUCACCCAUGUGUGCGGUAGA [Ex6 #4] (Eterna round: R97, puzzle: Exclusion 6)		345 nM		139 nM		
GGUUAAUGCAAGGAUAUGCUAUUAUUUUAUUUUGCAGAAGGUGCAACAUGAGGAUCACCCAUGUUGGAGGGUUU [JR_E6_Sub025] (puzzle: Exclusion 6)	18.6 nM					
GGUUGGCGAGGAUAUACAUGAGGAUCACCCAUGUGAGAGAAAAAAGUGAGGAAGACAAGUAGAAGGCGCUGACG [salish99_ex3_r3_035] (puzzle: Exclusion 3)	237 nM				8540 nM	125 nM
GGUUGGCGAGGAUAUACAUGAGGAUCACCCAUGUGAGAGAAAGAAGUGAGAACGAAAAGUAGAAGGCGCUGACG [salish99_ex3_r3_058] (puzzle: Exclusion 3)	65.8 nM				48.1 nM	66.1 nM
GGUUGGCGAGGAUAUACAUGAGGAUCACCCAUGUGAGAGACAAAAGUGAGGAAGAAAAGUAGAAGGCGCUGACG [salish99_ex3_r3_022] (puzzle: Exclusion 3)	84.5 nM				2000 nM	232 nM
GGUUGGCGAGGAUAUACAUGAGGAUCACCCAUGUGAGAGAGAAAAGUGAGGAAGAAAAGUAGAAGGCGCUGACG [salish99_ex3_r3_003] (puzzle: Exclusion 3)	48 nM				97.3 nM	36.1 nM
GGUUGGUGAGGAUAUACAUGAGGAUCACCCAUGUGAGAGAAAGAAGUGAGGAAGAAAAGUAGAAGGCGCUGACG [salish99_ex3_r3_054] (puzzle: Exclusion 3)	40.4 nM				87.1 nM	54.2 nM
